The target in assay [1] is T1, recombinant cynomolgus E11 protein (cynomolgus monkey).
T1 chain: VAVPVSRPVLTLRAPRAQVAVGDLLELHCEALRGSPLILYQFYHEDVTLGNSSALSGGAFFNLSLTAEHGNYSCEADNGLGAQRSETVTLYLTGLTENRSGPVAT
In words: SPR, mIgG2a captured, monovalent.

For assay [2], the target named is T1, recombinant cynomolgus E11 protein. In words: SPR, mIgG2a captured, monovalent.
The target in assay [3] is T2, soluble cynomolgus FcRH5 protein fragment (cynomolgus monkey).
T2 chain: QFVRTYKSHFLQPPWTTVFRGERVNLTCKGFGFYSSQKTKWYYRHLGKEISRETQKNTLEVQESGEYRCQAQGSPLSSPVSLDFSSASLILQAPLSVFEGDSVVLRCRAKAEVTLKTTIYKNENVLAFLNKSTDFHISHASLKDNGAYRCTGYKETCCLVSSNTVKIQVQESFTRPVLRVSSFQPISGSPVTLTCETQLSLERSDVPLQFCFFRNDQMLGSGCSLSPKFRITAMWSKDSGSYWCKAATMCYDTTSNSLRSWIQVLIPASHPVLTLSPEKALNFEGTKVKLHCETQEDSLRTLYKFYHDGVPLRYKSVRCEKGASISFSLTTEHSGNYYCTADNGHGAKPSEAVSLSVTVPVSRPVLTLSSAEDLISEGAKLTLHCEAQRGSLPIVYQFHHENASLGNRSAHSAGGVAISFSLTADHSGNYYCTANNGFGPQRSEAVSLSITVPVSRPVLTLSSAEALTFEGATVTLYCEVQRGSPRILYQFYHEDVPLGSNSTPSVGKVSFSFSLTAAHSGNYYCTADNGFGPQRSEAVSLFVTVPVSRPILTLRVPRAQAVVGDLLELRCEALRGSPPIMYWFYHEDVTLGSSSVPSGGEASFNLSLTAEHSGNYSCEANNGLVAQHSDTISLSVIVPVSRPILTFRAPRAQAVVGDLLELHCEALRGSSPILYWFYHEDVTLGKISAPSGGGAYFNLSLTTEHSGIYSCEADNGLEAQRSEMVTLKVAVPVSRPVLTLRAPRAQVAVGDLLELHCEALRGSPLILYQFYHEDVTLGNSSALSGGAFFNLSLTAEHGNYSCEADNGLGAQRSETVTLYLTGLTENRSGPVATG
In words: SPR, hIgG capture, 1:1 model.

The target in assay [4] is T3, cynomolgus monkey FcRH5, full-length (cynomolgus monkey).
T3 construct: also called cyno FcRH5; Cynomolgus FcRH5
T3 chain: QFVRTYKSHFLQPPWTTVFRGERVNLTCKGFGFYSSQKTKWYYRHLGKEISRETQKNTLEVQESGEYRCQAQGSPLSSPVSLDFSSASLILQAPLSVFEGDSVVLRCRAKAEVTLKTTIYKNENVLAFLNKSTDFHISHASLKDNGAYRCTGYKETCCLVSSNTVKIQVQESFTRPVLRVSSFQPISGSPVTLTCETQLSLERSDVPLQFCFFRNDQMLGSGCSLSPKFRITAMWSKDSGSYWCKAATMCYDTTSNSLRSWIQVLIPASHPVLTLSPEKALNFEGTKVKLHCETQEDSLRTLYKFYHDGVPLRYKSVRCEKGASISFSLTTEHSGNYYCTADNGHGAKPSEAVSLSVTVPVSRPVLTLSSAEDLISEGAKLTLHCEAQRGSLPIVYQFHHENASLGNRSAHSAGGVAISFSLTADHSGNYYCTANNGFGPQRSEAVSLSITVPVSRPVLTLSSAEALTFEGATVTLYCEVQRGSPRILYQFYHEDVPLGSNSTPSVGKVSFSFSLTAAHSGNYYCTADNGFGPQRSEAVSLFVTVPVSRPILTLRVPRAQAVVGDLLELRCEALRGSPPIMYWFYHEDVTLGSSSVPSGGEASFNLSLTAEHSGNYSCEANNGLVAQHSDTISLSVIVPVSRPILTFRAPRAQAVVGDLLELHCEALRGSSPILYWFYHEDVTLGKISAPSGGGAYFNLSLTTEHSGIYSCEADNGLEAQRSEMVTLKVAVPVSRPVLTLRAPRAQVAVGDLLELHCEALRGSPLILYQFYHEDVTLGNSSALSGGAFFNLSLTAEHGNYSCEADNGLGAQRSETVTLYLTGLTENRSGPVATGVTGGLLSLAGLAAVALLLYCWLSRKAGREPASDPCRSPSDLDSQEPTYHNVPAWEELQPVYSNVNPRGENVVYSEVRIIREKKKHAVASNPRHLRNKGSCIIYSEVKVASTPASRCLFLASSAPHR
In words: FACS, SVT2 cells, TDB 3 µg/ml. The protocol: Human FcRH5, cyno FcRH5, human FcRH1, FcRH2, FcRH3, and FcRH4 transfected mouse SVT2 cells were used to test binding and cross-reactivity of FcRH5 TDBs. The method was carried out as follows. Cultured SVT2 cells were lifted using non-enzyme cell dissociation buffer (Sigma, #C5914). 1×10⁵ cells were suspended in 100 μL and incubated with FcRH5 TDBs at 3 μg/ml. Cells were then washed with FACS buffer (PBS, 1% BSA, 2 mM EDTA) and incubated with goat-anti-human Fc PE (Jackson Immunoresearch, #109-116-170) at a 1:100 dilution. Cells were washed twice with FACS buffer before flow cytometry analysis was carried out on a FACSCalibur.

The target in assay [5] is T2, soluble cynomolgus FcRH5 protein …. The assay can be described thus: BIACORE (FIG. 15).
A further assay concerns the target T4, human FcRH5, full-length (human, UniProt Q96RD9 16-977).
T4 sequence: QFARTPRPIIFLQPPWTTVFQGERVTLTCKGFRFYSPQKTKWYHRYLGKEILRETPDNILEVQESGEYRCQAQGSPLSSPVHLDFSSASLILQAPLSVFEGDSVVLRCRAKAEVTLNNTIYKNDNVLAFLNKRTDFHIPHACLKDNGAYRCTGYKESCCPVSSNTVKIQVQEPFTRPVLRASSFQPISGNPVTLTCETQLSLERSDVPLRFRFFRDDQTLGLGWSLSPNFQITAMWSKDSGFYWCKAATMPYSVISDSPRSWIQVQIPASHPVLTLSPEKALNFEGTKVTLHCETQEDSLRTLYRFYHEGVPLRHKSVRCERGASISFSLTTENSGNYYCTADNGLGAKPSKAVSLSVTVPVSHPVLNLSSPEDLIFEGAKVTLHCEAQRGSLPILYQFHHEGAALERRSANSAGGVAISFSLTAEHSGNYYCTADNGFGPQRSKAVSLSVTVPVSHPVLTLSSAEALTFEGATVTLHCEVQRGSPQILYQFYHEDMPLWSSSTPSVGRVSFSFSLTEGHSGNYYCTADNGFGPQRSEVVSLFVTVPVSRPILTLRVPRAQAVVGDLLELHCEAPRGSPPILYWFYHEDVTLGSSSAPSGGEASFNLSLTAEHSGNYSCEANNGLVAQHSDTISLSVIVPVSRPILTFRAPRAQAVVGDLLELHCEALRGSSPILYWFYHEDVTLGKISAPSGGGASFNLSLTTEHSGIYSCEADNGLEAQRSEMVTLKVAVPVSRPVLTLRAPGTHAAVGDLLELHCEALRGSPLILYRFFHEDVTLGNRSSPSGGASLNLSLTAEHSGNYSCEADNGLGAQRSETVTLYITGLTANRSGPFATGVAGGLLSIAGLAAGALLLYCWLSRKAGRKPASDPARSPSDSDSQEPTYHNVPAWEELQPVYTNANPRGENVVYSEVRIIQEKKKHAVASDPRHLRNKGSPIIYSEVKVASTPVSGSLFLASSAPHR
The assay can be described thus: cell-based or functional assay.

Assay [6] deals with T3, cynomolgus monkey FcRH5, full-length. The assay can be described thus: flow cytometry, SVT2-cyno FcRH5 cells.
Assay [7] addresses T2, soluble cynomolgus FcRH5 protein …. The assay can be described thus: BIACORE, hIgG capture, 1:1 model, monovalent.

The results in this text go back to US20220048993A1 (published 2022).

Numbering of substitutions follows the chain as printed. Numbers in names are those of the source.

B1: 15G8 (antibody, mouse IgG2a, V domains shown)
VH: EVQLQQSGPELVKPGASVKMSCKASGYTFTNYVIHWMKQKPGQGLEWIGYISPYNDYTKYNEKFEGKATLTSDKSSNTAYMELSSLTSEDSAVYYCARRDYYGSSDYWGQGTTLTVSS
VL: QIVLTQSPAIMSASPGEKVTMTCSASSSVDYMHWYQQKSGTSPKKWIYDTSKLASGVPARFSGSGSGTSYSLTIGSMEAEDAATYYCQQWSSNPPTFGGGTKLEIK
notes: mouse mAb, Campaign C; recombinant murine IgG2a for BIACORE; also called mAb 15G8
B1: the “KD difference between human and cynomolgus E11 domains” value in assay [1] is approximately 20 fold. Also, in assay [2], the Kd turned out to be 9.1 nM.

B2: 1G7.v1.4/38E4.v1 TDB (bispecific antibody, V domains shown)
VH 1: EVQLVESGPGLVKPSETLSLTCTVSGFSLTRFGVHWVRQPPGKGLEWLGVIWRGGSTDYNAAFMSRLTISKDNSKNQVSLKLSSVTAADTAVYYCSNHYYGSSDYALDNWGQGTLVTVSS
VL 1: DIQMTQSPSSLSASVGDRVTITCKASQDVRNLVVWFQQKPGKAPKLLIYSGSYRYSGVPSRFSGSGSGTDFTLTISSLQPEDFATYYCQQHYSPPYTFGQGTKVEIK
VH 2: EVQLVQSGAEVKKPGASVKVSCKASGFTFTSYYIHWVRQAPGQGLEWIGWIYPENDNTKYNEKFKDRVTITADTSTSTAYLELSSLRSEDTAVYYCARDGYSRYYFDYWGQGTLVTVSS
VL 2: DIVMTQSPDSLAVSLGERATINCKSSQSLLNSRTRKNYLAWYQQKPGQSPKLLIYWTSTRKSGVPDRFSGSGSGTDFTLTISSLQAEDVAVYYCKQSFILRTFGQGTKVEIK
notes: knob-into-hole full-length TDB; also called 1G7.v1.4 TDB
In assay [3], B2 registered a Kd of 6.3 nM, a koff of 0.0008 s⁻¹ and a kon of 100000 M⁻¹ s⁻¹. In assay [4], the binding result is given as “binds”.

B3: hu1G7.v85 (hIgG1) (antibody, V domains shown)
VH: B2 VH 1 with M64V
VL: B2 VL 1
notes: bivalent human IgG1; also called hu1G7.v1.4.M64V
In assay [3], B3 yielded a dissociation constant (Kd) of 7.2 nM, a koff of 0.001 s⁻¹ and a kon of 100000 M⁻¹ s⁻¹.

B4: 1G7.v85/38E4.v1 TDB (bispecific antibody, V domains shown)
VH 1: B2 VH 1 with M64V
VL 1: B2 VL 1
VH 2: B2 VH 2
VL 2: B2 VL 2
notes: knob-into-hole full-length TDB; also called 1G7.v85 TDB; FcRH5 TDB
As to B4, binding in assay [5] was characterised by a dissociation constant (Kd) of 7.8 nM. For the same molecule, in the assay with human FcRH5, full-length, the “killing of MOLP-2 cells, EC50” value was 0.058 nM; the “killing of SVT2-FcRH5 cells, IC50, in DMSO” value came to 0.006 nM; the “killing of SVT2-FcRH5 cells, IC50, in buffer” value amounted to 0.007 nM; the “killing of SVT2-FcRH5 cells, IC50, with 0.1 µM dexamethasone” value is 0.016 nM. Besides, in the assay with human FcRH5, full-length, the “killing of SVT2-FcRH5 cells, IC50, with 1 µM dexamethasone” value amounted to 0.025 nM and the “killing of human bone marrow plasma cells, EC50” value lay within 0.085 to 0.18 nM. In addition, in assay [3], the Kd is 6.8 nM, the koff came to 0.0008 s⁻¹ and the kon was determined as 100000 M⁻¹ s⁻¹. Also, the binding result in assay [6] is reported as “binds”. Binding in assay [7] was put at a Kd of 6.76 nM.

B5: hu1G7.v1.4 (hIgG1) (antibody, V domains shown)
VH: B2 VH 1
VL: B2 VL 1
notes: human IgG1
In assay [3], B5 had a Kd of 7.7 nM, a koff of 0.001 s⁻¹ and a kon of 100000 M⁻¹ s⁻¹.

B6: hu1G7.v93/38E4.v1 TDB (bispecific antibody, V domains shown)
VH 1: B2 VH 1 with L29T, M64V, S103P
VL 1: B2 VL 1 with R30S
VH 2: B2 VH 2
VL 2: B2 VL 2
notes: knob-into-hole full-length TDB; also called 1G7.v93 TDB
B6: the Kd in assay [5] turned out to be 8.1 nM.

B7: 17B1 (antibody, mouse IgG2a, V domains shown)
VH: QVQLQQSGPELVRPGVSVKISCKGSGYTFTHYAMHWVKQSHTKSLEWIGMISSSSGNTNFNQKFMDKATMTVDKSSTTAYLELARLTFGDSAIYYCARWSYYALFDYWGQGTTVTVSS
VL: ENVLTQSPAIMSASPGEKVTMTCSADSSVDYIHWYQQKSNTSPKLWIYDTSKLASGVPGRFSGSGSGNSYSLTISSMEAEDFATYYCFQGSGYPLTFGSGTKLELK
notes: mouse mAb, Campaign C; recombinant murine IgG2a for BIACORE
For the molecule B7, the Kd in assay [2] was determined as 27 nM.
